Measured values as given in US20260146074A1 (CITY OF HOPE, published 2026).

Target: TAG72 on the surface of human tumor cells (LS174T, OVCAR3, OV90, OVCAR8-sTn, patient ascites OAS4 and OAS7) (human)
Assay: cell-based or functional assay

B1: TAG72-BBζ CAR (hTag72scFv-IgG4(HL-CH3)-CD4tm-41BB-Zeta), expressed on human T cells (other)
chain: QVQLVQSGAEVVKPGASVKISCKASGYTFTDHAIHWVKQNPGQRLEWIGYFSPGNDDFKYNERFKGKATLTADTSASTAYVELSSLRSEDTAVYFCTRSLNMAYWGQGTLVTVSSGSTSGGGSGGGSGGGGSSDIVMSQSPDSLAVSLGERVTLNCKSSQSLLYSGNQKNYLAWYQQKPGQSPKLLIYWASARESGVPDRFSGSGSGTDFTLTISSVQAEDVAVYYCQQYYSYPLTFGAGTKLELKESKYGPPCPPCPGGGSSGGGSGGQPREPQVYTLPPSQEEMTKNQVSLTCLVKGFYPSDIAVEWESNGQPENNYKTTPPVLDSDGSFFLYSRLTVDKSRWQEGNVFSCSVMHEALHNHYTQKSLSLSLGKMALIVLGGVAGLLLFIGLGIFFKRGRKKLLYIFKQPFMRPVQTTQEEDGCSCRFPEEEEGGCELGGGRVKFSRSADAPAYQQGQNQLYNELNLGRREEYDVLDKRRGRDPEMGGKPRRKNPQEGLYNELQKDKMAEAYSEIGMKGERRRGKGHDGLYQGLSTATKDTYDALHMQALPPR
- tumor killing relative to Mock, LS174T cells, 24 hours: 59%
- tumor killing relative to Mock, LS174T cells, 72 hours: 77%
- tumor killing relative to Mock, OV90 cells, 24 hours: 67%
- tumor killing relative to Mock, OV90 cells, 72 hours: 97%
- tumor killing relative to Mock, OVCAR3 cells, 24 hours: 79%
- tumor killing relative to Mock, OVCAR3 cells, 72 hours: 90%
